T1: recombinant human CD30L (human, UniProt P32971 63-234)
T1 construct: Recombinant or purified protein of the ELISA, BLI, Carterra and KinExA assays; construct not described; also called rhCD30L; huCD30L
T1 sequence (looked up): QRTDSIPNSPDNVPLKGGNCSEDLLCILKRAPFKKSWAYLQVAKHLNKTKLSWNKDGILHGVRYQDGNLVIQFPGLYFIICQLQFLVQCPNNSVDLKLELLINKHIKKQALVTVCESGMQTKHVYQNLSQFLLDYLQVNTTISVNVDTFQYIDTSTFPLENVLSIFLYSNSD

T2: human CD30L expressed on B16 cells (human, UniProt P32971 1-234)
T2 construct: whole, on cells; B16 cell line transfected to express human CD30L; also called B16-huCD30L; hCD30L B16
T2 sequence (looked up): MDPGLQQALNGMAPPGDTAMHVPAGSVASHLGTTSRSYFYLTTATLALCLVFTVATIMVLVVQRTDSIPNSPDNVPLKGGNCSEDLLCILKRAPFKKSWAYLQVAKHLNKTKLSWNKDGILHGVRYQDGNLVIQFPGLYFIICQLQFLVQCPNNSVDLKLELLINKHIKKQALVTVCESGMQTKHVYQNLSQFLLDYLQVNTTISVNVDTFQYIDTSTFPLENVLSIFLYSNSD


Assays:
[1] = target: cynomolgus CD30L on HEK293 cells (cynomolgus); test: cell-based or functional assay
[2] = target: T3, recombinant cynomolgus CD30L protein (cynomolgus); test: ELISA, cyCD30L, 1/50 dil
T3 construct: Recombinant protein of the ELISA; also called cyCD30L; cyno CD30L

[3] = target: T3, recombinant cynomolgus CD30L protein; test: ELISA, cyCD30L, 1/500 dil
[4] = target: T3, recombinant cynomolgus CD30L protein; test: ELISA, cyCD30L, 1/5000 dil
recombinant human CD30L = target: T1, recombinant human CD30L; test: ELISA on rhCD30L, OD 450 nm against Ab (nM)
[5] = target: T2, human CD30L expressed on B16 cells; test: flow cytometry on B16-huCD30L cells, MFI against Ab (nM)

| Inhibition of IL-8 release in a dual cell assay (HEK293-cyCD30L cells + K299 cells) IC50 [1] [nM] | Elisa Binding (OD) [2] [OD] | Elisa Binding (OD) [3] [OD] | Elisa Binding (OD) [4] [OD] | Binder | further results |
| --- | --- | --- | --- | --- | --- |
| – | 2.58 | 2.38 | 0.583 | Clone 4 (antibody, V domains shown, hybridoma clone) VH: QVQLVESGGGVVQPGRSLRLSCAASGFPFSSYGMHWVRQAPGKGLEWVTFIWFDGNNKDYADSVKGRFSVSRDNSKNTLYLQMNSLRADDTAVYYCARNGVYYGSGAYVDYWGQGTLVTVSS VL: not shown | – |
| 0.55 | – | – | – | Clone 1, Mouse IgG (antibody, V domains shown) VH: QVQLQESGPGLVKPSETLSLTCTVSGGSISGYYWSWIRQPPVKGLEWIGYIFYSGYTKYNPSLKSRVTISVDTSKNQFSLKLSSVTAADTAVYYCARDRWDFDYWGQGALVTVSS VL: AIQMTQSPSYLSASVGDRVTIACRASQGIRNNLGWYQQKPGKAPKLLIYAESSLQSGVPSRFSGSGSGTDFTLTISSLQPEDFATYYCLQDFNYPYTFGQGTKLEIK | – |
| – | 3.2 | 2.35 | 0.552 | Clone 3 (antibody, V domains shown, hybridoma clone) VH: QVQLQESGPGLVKPSETLSLTCTVSGGSISGYYWSWIRQPPVKGLEWIGYIFYSGYTKYNPSLKSRVTISVDTSKNQFSLKLSSVTAADTAVYYCARDRWDFDYWGQGALVTVSS VL: not shown | – |
| 0.46 | – | – | – | Clone 2, Mouse IgG (antibody, V domains shown) VH: EVQLVESGGGLVQPGRSLRLSCAASGFNFDDYAMHWVRQAPGKGLEWVSGISWRSGNIGYAGSVKGRFTISRDNAKNSLYLQMNSLRPEDSALYYCAKDKGIGFNWNYEGFDYWGQGTLVTVSS VL: DIQMTQSPSSLSASVGDRVTITCRASQGISNHLAWFQQKPGKAPKSLIYAASSLQSGVPSKFSGSGSGTDFTLTISSLQPEDFATYYCQQYVTYPLTFGGGTKVEIK | – |

The next lines start with the binder.

| Binder | Inhibition of IL-8 release in a dual cell assay (HEK293-cyCD30L cells + K299 cells) IC50 [1] [nM] | Elisa Binding (OD) [2] [OD] | Elisa Binding (OD) [3] [OD] | Elisa Binding (OD) [4] [OD] | further results |
| --- | --- | --- | --- | --- | --- |
| anti-CD30L Reference 1 antibody (antibody, human IgG1, lambda, V domains shown) VH: QVQLQESGPGLVKPSETLSLTCTVSGGSISSYIWSWIRQPAGKGLEWIGRIYASGNTNYNPSLKSRVTISVDTSKNQFSLKLSSMTAADTAVYYCARDYRVAGTYYYYYGLDVWGQGTTVTVSS VL: QSALTQPASVSGSPGQSITISCTGTSSDVGVYDYVSWYQQHPGKAPKLMIYEVSNRPSGVSNRFSGSKSGNTASLTISGLQTEDEADYYCSSYTSRSTWVFGGGTKLTVLG | 0.68 | – | – | – | – |
| Clone 1 (antibody, V domains shown, also called anti-CD30L antibody clone 1 (parental)) VH: QVQLQESGPGLVKPSETLSLTCTVSGGSISGYYWSWIRQPPVKGLEWIGYIFYSGYTKYNPSLKSRVTISVDTSKNQFSLKLSSVTAADTAVYYCARDRWDFDYWGQGALVTVSS VL: AIQMTQSPSYLSASVGDRVTIACRASQGIRNNLGWYQQKPGKAPKLLIYAESSLQSGVPSRFSGSGSGTDFTLTISSLQPEDFATYYCLQDFNYPYTFGQGTKLEIK | – | 2.83 | 2.87 | 1.16 | – |
| Clone 1, Human IgG1 (antibody, V domains shown) VH: QVQLQESGPGLVKPSETLSLTCTVSGGSISGYYWSWIRQPPVKGLEWIGYIFYSGYTKYNPSLKSRVTISVDTSKNQFSLKLSSVTAADTAVYYCARDRWDFDYWGQGALVTVSS VL: AIQMTQSPSYLSASVGDRVTIACRASQGIRNNLGWYQQKPGKAPKLLIYAESSLQSGVPSRFSGSGSGTDFTLTISSLQPEDFATYYCLQDFNYPYTFGQGTKLEIK | 0.22 | – | – | – | – |
| Clone 2 (antibody, V domains shown, also called anti-CD30L antibody clone 2 (parental)) VH: EVQLVESGGGLVQPGRSLRLSCAASGFNFDDYAMHWVRQAPGKGLEWVSGISWRSGNIGYAGSVKGRFTISRDNAKNSLYLQMNSLRPEDSALYYCAKDKGIGFNWNYEGFDYWGQGTLVTVSS VL: DIQMTQSPSSLSASVGDRVTITCRASQGISNHLAWFQQKPGKAPKSLIYAASSLQSGVPSKFSGSGSGTDFTLTISSLQPEDFATYYCQQYVTYPLTFGGGTKVEIK | – | 3.76 | 3.18 | 1.23 | – |
| Clone 2, Human IgG1 (antibody, V domains shown) VH: EVQLVESGGGLVQPGRSLRLSCAASGFNFDDYAMHWVRQAPGKGLEWVSGISWRSGNIGYAGSVKGRFTISRDNAKNSLYLQMNSLRPEDSALYYCAKDKGIGFNWNYEGFDYWGQGTLVTVSS VL: DIQMTQSPSSLSASVGDRVTITCRASQGISNHLAWFQQKPGKAPKSLIYAASSLQSGVPSKFSGSGSGTDFTLTISSLQPEDFATYYCQQYVTYPLTFGGGTKVEIK | 0.24 | – | – | – | – |
| anti-CD30L antibody clone 80 (antibody, V domains shown, purified recombinant IgG, mouse strain #1) VH: EVQLVESGGGLVQPGGSLRLSCEVSGFTFSSYDMHWVRQVTGTGLEWVSSIGIGGDTYYPGSVKGRFTISRENAKNSLYLQMNSLRGGDTGVYYCARGEWDLLWYFMDVWGKGTTVTVSS VL: DIQMTQSPSSLSASIGDRVTITCRASQGISSWLAWYQQKPGKAPKLLIYAASSLQSGVPSRFSGSGSGTDFTLTISSLQPEDFATYYCQQANSFPLTFGGGTKVEIK | – | – | – | – | EC50 (read off the curve) (recombinant human CD30L): ~0.1 nM; EC50 (read off the curve) [5]: ~2 nM |
